± gives the uncertainty stated by the source.

This note sets out measurements from the Human Domainome abundance scans (Beltran et al. 2025).

The labels stand for the following.
B1: Ras GTPase-activating protein 1, residues 281 to 341; numbered along this chain, P20936 (parent)
chain: RRRVRAILPYTKVPDTDEISFLKGDMFIVHNELEDGWMWVTNLRTDEQGLIVEDLVEEVGR

The data set covers variants of B1. Kind of data set: abundance fitness (aPCA) (normalised: wild type 0, dead -1); higher = more abundant; growth selection in yeast, the domain comes from the species named. The note with it: Homo sapiens.
For W37S, the abundance fitness was 0.004 ± 0.02.
Next, W37F: -0.004 ± 0.021; W37M: 0.006 ± 0.037; W37L: -0.003 ± 0.022.
Next, W37Q: 0.073 ± 0.042.
Next, V56Y: -0.982 ± 0.062.
Regarding I19A, the abundance fitness was -1.14 ± 0.12.
As for I19M, the figure is -0.316 ± 0.048; as for I19N, -1.03 ± 0.069; as for E53G, 0.03 ± 0.027.
Next, E53T: 0.041 ± 0.032.
As for E53P, the figure is -0.031 ± 0.04.
For E53A, the abundance fitness was -0.027 ± 0.032.
As for E53K, the figure is 0.01 ± 0.054; as for T45Q, -0.962 ± 0.25; as for T45M, -0.974 ± 0.11.
Next, T45A: -0.735 ± 0.049.
As for T45F, the figure is -0.796 ± 0.042; as for V13R, 0.071 ± 0.03.
Consider V13W, for which the abundance fitness is -0.152 ± 0.058.
Take V13Q: the abundance fitness is 0.025 ± 0.046.
As for V13F, the abundance fitness was -0.185 ± 0.027.
V59I: the abundance fitness is -0.04 ± 0.029.
Next, V59K: -0.451 ± 0.079; V29A: -0.694 ± 0.041.
As for T41R, the figure is -0.102 ± 0.03; as for T41W, -0.378 ± 0.063.
As for W39T, the figure is -0.26 ± 0.023; as for W39M, -0.094 ± 0.03.
Take W39P: the abundance fitness is -0.796 ± 0.043.
Next, W39H: -0.204 ± 0.024; L55P: -0.925 ± 0.086.
Next, L55D: -0.394 ± 0.035; L55N: -0.02 ± 0.032; Y10K: -0.485 ± 0.15.
On to Y10C, for which the abundance fitness was -0.539 ± 0.05.
As for Y10Q, the figure is -0.422 ± 0.089; as for Y10R, -0.27 ± 0.045; as for P9Y, -0.796 ± 0.046.
As for P9M, the figure is -0.308 ± 0.082; as for P9F, -0.73 ± 0.039; as for P9R, -0.311 ± 0.035.
As for G24H, the figure is -0.201 ± 0.033; as for G24R, -0.672 ± 0.039; as for G24C, -0.733 ± 0.036.
As for G24W, the abundance fitness is -0.545 ± 0.057.
Next, G24A: -0.495 ± 0.034.
As for G24Q, the figure is -0.628 ± 0.11.
Next, T11N: -0.026 ± 0.029.
On to T11K, for which the abundance fitness was -0.13 ± 0.067.
Next, T11V: 0.017 ± 0.029; L8Y: -0.084 ± 0.026; L8D: -0.149 ± 0.033.
As for E58C, the figure is -0.146 ± 0.032; as for E58Q, -0.113 ± 0.069.
D54Q: the abundance fitness stood at 0 ± 0.075.
As for D54K, the figure is 0.037 ± 0.073; as for D54N, 0.013 ± 0.036.
On to D54H, for which the abundance fitness was -0.225 ± 0.037.
Next, D54R: 0.133 ± 0.036.
As for D54I, the figure is -0.338 ± 0.045; as for G36P, -0.597 ± 0.055.
Next, G36H: -0.161 ± 0.034; G36W: -0.867 ± 0.095; E57I: -0.223 ± 0.034.
As to E57S, the abundance fitness is -0.252 ± 0.031.
As for E57D, the figure is -0.251 ± 0.053.
Next, E57Q: -0.083 ± 0.081; E57F: -0.527 ± 0.049.
As for E57G, the figure is -0.536 ± 0.048.
For E57C, the abundance fitness is -0.168 ± 0.041.
With E57N, the abundance fitness is -0.447 ± 0.047.
V40G: the abundance fitness was -0.547 ± 0.029.
Next, V40A: 0.002 ± 0.033; V40I: -0.829 ± 0.048; V40L: -0.935 ± 0.062.
As for E34P, the figure is 0.03 ± 0.048; as for E34A, 0.023 ± 0.04; as for E34D, -0.033 ± 0.034.
As for E34L, the figure is -0.182 ± 0.033.
Take E34V: the abundance fitness is -0.089 ± 0.03.
As to E34M, the abundance fitness is -0.159 ± 0.089.
As for H30F, the figure is -0.39 ± 0.033; as for H30N, -0.135 ± 0.028; as for H30R, -0.255 ± 0.029.
Next, A6C: -0.829 ± 0.027; A6I: -0.885 ± 0.031.
Next, P14L: -0.188 ± 0.032; P14C: -0.142 ± 0.026.
With P14N, the abundance fitness is -0.075 ± 0.03.
Next, K23L: -0.232 ± 0.027; K23I: -0.148 ± 0.021; E32A: -0.068 ± 0.029.
As for E32V, the figure is -0.018 ± 0.026; as for E32F, -0.054 ± 0.031.
Take T16Q: the abundance fitness is -1.03 ± 0.21.
Next, M26D: 0.012 ± 0.03; M26F: -0.042 ± 0.029.
As for I7R, the figure is -0.055 ± 0.034; as for I7Q, -0.473 ± 0.11; as for I7G, -0.735 ± 0.044.
For the variant Q48W, the abundance fitness is -0.32 ± 0.062.
Next, Q48Y: -0.08 ± 0.027; Q48P: -0.503 ± 0.04.
As for Q48R, the figure is -0.051 ± 0.03.
For Q48D, the abundance fitness is -0.038 ± 0.031.
Next, Q48I: -0.084 ± 0.027; D46F: -0.065 ± 0.024; D46S: -0.011 ± 0.023.
For the variant D46K, the abundance fitness was determined as 0.085 ± 0.042.
As for F27S, the figure is -0.798 ± 0.036.
Next, F27H: -0.724 ± 0.05.
Next, F27Y: -0.834 ± 0.045.
For the variant F27M, the abundance fitness is -0.108 ± 0.07.
As to F27L, the abundance fitness is -0.241 ± 0.029.
For the variant L22I, the abundance fitness stood at 0.001 ± 0.033.
As for L22V, the figure is -0.038 ± 0.035.
As for L22Q, the figure is 0.045 ± 0.13.
Next, L22R: -0.045 ± 0.032; L22H: -0.013 ± 0.041; L22F: -0.145 ± 0.029.
Turning to L22Y, the abundance fitness was -0.102 ± 0.035.
As for L22T, the abundance fitness is -0.153 ± 0.039.
On to L43Y, for which the abundance fitness is -0.35 ± 0.033.
On to L43W, for which the abundance fitness is -0.748 ± 0.098.
As for L43C, the figure is 0.007 ± 0.028; as for D15G, -0.011 ± 0.025.
Next, D15M: -0.269 ± 0.077; D15C: -0.126 ± 0.029.
Next, D15W: -0.276 ± 0.059; R44V: -0.708 ± 0.047; R44I: -0.774 ± 0.041.
Take R44F: the abundance fitness is -0.637 ± 0.033.
As for V4N, the figure is -0.865 ± 0.033.
Next, V4C: -0.465 ± 0.023; G60I: -0.299 ± 0.11.
For G60E, the abundance fitness is 0.003 ± 0.25.
Next, G60L: -0.227 ± 0.12; D35I: -0.487 ± 0.037.
Next, D35G: 0.015 ± 0.03; D35K: -0.036 ± 0.062.
As for N31E, the figure is -0.038 ± 0.056.
Turning to N31W, the abundance fitness was -0.043 ± 0.045.
As for N31V, the figure is -0.159 ± 0.028; as for N42E, -0.698 ± 0.11; as for N42H, -0.381 ± 0.033.
For N42S, the abundance fitness was -0.235 ± 0.026.
As for N42W, the figure is -0.929 ± 0.11; as for R5T, -0.21 ± 0.033.
As for R5D, the figure is -0.86 ± 0.067.
In the case of R5P, the abundance fitness was -0.919 ± 0.074.
Consider R5N, for which the abundance fitness was -0.754 ± 0.044.
Next, R5K: 0.052 ± 0.062; R5W: -0.531 ± 0.061; R5Y: -0.331 ± 0.03.
As for R2V, the abundance fitness was -0.232 ± 0.031.
With R2I, the abundance fitness is -0.159 ± 0.027.
R2D: the abundance fitness is -0.179 ± 0.034.
Next, R2S: -0.164 ± 0.024; E47N: -0.428 ± 0.032.
Next, E47D: -0.104 ± 0.028; E47W: -0.94 ± 0.11.
Next, E47C: -0.192 ± 0.029; E47S: -0.348 ± 0.026; I51Q: -1.07 ± 0.16.
I51T: the abundance fitness was -0.784 ± 0.054.
For I51K, the abundance fitness is -1.09 ± 0.12.
